The target of the experiment is avidin (Gallus gallus, UniProt P02701). Particulars: for A500 Measurement reagent 1: room temperature 5 minutes.

The source of these data is patent US20230288426A1, “REAGENT FOR MEASURING L-BIOTIN, METHOD FOR MEASURING SAMPLE CONTAINING L-BIOTIN, METHOD FOR DETERMINING NUMBER OF LABELS OF L-BIOTIN-LABELED SUBSTANCE, AND METHOD FOR PRODUCING SOLID PHASE ON WHICH OPTICALLY ISOMERIC BIOTIN-BINDING SITE IS IMMOBILIZED” (SYSMEX CORPORATION, priority 2022, published 2023).

Read-outs that look alike come from different tables or passages of the source.

Chain of avidin (P02701 25-152): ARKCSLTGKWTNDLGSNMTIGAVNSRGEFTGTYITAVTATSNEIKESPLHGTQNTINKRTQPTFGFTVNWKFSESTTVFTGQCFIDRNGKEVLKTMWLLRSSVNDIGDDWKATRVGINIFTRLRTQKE
Experimental: HABA (1 mg) and PBS (33 mL) were mixed to obtain a HABA solution. […] In the reagent, the concentration of avidin was 250 μg/mL, and the concentration of HABA was 30 μg/mL.
A reagent for measuring L-biotin (91.7 μL) was mixed with 0.1 M phosphate buffer (pH 7.5, 18.3 μL) or an L-biotin standard solution (18.3 μL), and the mixture was allowed to stand at room temperature for 5 minutes. Then, the absorbance at 500 nm (A500) of the reaction mixture was measured by spectrophotometer UV-2600 (Shimadzu Corporation). […] As a calibration curve, a straight line by a least squares method was used.
A sample containing the L-biotin-labeled BSA prepared in the above (3.2.1) was diluted 100-fold with 0.1 M phosphate buffer (pH 7.5). A reagent for measuring L-biotin (91.7 μL) and a sample containing diluted L-biotin-labeled BSA (18.3 μL) or a sample containing an L-biotin-labeled antibody (18.3 μL) were mixed, and the mixture was allowed to stand at room temperature for 5 minutes. Then, A500 of the reaction mixture was measured by UV-2600. The amount (μM) of L-biotin contained in each sample was determined from a calibration curve (regression equation) for the reagent for measuring L-biotin.

As for `O=C(O)CCCC[C@@H]1SC[C@@H]2NC(=O)N[C@@H]21` [D-Biotin, 3aS,4S,6aR-D-biotin], the “A500 Measurement reagent 1” value came out at 0.194 (D-biotin standard solution 25 μM) and 0.062 (D-biotin standard solution 50 μM).
Molecule “D-Bio-BSA: BSA labeled with D-biotin AC5-NHS” yielded a Biotin concentration (D-biotin in sample, Table 3) of 1375.0 µM. The molecule also yielded a D-Biotin (from calibration curve, BSA sample value multiplied by 100) of 1375.0 µM. The A500 (sample with Reagent 1 for measuring D-biotin, BSA sample diluted 100-fold) is 0.257.
